One molecule from patent publication US20260078175A1 (Boehringer Ingelheim, published 2026) can be followed below.

Assay [1] concerns the target T1, Rabbit Sema3A (rabbit, UniProt G1T285 21-770).
T1 construct: Construct not described
T1 sequence: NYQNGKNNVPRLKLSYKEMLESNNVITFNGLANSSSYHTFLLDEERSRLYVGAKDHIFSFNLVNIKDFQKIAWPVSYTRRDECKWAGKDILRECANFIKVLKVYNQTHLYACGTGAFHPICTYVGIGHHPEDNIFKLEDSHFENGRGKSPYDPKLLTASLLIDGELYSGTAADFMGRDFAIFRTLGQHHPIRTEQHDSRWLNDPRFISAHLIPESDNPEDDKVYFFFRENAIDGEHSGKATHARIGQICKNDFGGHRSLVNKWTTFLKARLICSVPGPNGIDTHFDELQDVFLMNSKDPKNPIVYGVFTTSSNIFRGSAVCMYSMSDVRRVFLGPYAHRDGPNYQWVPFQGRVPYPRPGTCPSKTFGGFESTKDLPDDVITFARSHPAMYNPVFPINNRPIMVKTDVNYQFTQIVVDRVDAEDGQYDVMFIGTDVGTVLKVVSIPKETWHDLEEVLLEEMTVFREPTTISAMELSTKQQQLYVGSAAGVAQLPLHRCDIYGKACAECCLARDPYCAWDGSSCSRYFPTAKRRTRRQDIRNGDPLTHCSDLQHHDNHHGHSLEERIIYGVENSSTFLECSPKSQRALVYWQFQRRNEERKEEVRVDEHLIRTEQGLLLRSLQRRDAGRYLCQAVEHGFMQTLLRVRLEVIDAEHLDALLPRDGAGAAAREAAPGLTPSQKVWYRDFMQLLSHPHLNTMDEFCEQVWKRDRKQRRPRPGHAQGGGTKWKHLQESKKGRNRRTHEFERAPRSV
Briefly: SPR (GLM sensorchip), antibody captured on Human Fab Binder, Sema3A as analyte, 1:1 Langmuir fit. How it is done: (§1) The running buffer for this experiment and all dilutions (except where stated) were done in PBS-T-EDTA with 0.01% Tween20 [100 ul of 100% Tween20 was added to 2L of PBS-T-EDTA to make final Tween 20 concentration of 0.01%]. The GLM sensorchip was normalized and pre-conditioned as per the manufacturer's recommendations. The sensorchip was activated with equal mixture of EDC/s-NHS in the horizontal direction for 300 sec at a flow rate of 30 μl/min and immobilized with Human Fab Binder (10 μg/ml in 10 mM acetate pH 5.0) in the horizontal direction for 300 sec at a flowrate of 30 μl/min resulting in ˜6739-7414 RU of Human Fab Binder on the surface. The sensorchip was deactivated with 1M ethanolamine HCl in the horizontal direction for 300 sec at a flowrate of 30 μl/min. The sensorchip was stabilized with 18 sec of 10 mM glycine, pH 2.1 at a flowrate of 100 μl/min 1 time horizontally and 1 time vertically.
(§2) The inventors tested an exemplary antibody according to the invention (clone I). Said antibody (0.5 μg/ml) was captured on the Human Fab Binder surface vertically for 300 sec at a flowrate of 25 μl/min resulting ˜180 RU capture level. The baseline was stabilized by injecting PBS-T-EDTA for 60 sec at a flowrate of 40 μl/min horizontally. The analyte was injected horizontally over the captured antibody for 600 sec at a flowrate of 40 μl/min and a dissociation for 7200 sec. The concentrations of the analytes were 0 nM, 0.625 nM, 1.25 nM, 2.5 nM, 5 nM, and 10 nM. The surface was regenerated by injecting 10 mM glycine, pH 2.1 for 18 sec at a flowrate of 100 μl/min one time horizontally and one time vertically. PBS-T-EDTA was injected for 60 sec at a flowrate of 25 μl/min one time vertically.
(§3) The interspot (interactions with sensor surface) and blank (PBS-T-EDTA with 0.01% Tween20 or 0 nM analyte) were subtracted from the raw data.

The target of assay [2] is T2, Rat Sema3A (rat, UniProt Q63548 21-772, limits assumed).
T2 construct: Construct not described
T2 sequence (looked up): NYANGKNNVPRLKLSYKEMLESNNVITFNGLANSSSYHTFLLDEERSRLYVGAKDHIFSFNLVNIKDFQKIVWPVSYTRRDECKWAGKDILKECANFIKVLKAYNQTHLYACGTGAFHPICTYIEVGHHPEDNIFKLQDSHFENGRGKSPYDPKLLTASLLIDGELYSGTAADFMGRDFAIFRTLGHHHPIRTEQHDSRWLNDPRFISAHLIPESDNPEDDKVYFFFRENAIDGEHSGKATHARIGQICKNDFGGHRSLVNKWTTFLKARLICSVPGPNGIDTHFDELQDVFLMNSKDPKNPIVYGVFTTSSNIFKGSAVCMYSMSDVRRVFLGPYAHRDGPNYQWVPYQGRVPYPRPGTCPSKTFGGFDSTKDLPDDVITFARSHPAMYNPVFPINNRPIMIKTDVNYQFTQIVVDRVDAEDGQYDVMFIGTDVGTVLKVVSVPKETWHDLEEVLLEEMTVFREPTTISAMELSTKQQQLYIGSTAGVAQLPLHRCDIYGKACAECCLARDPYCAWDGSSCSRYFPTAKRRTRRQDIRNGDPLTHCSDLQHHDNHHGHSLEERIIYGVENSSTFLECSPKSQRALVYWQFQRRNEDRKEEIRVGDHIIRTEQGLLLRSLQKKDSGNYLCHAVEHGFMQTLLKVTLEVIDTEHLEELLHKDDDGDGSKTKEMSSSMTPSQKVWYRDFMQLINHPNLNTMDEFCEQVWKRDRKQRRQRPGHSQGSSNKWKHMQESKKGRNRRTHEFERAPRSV
The assay is described as above. How it is done:
as §1, §2, §3

The target of assay [3] is T3, Mouse Sema3A (mouse, UniProt O08665 21-772, limits assumed).
T3 construct: Construct not described
T3 sequence (looked up): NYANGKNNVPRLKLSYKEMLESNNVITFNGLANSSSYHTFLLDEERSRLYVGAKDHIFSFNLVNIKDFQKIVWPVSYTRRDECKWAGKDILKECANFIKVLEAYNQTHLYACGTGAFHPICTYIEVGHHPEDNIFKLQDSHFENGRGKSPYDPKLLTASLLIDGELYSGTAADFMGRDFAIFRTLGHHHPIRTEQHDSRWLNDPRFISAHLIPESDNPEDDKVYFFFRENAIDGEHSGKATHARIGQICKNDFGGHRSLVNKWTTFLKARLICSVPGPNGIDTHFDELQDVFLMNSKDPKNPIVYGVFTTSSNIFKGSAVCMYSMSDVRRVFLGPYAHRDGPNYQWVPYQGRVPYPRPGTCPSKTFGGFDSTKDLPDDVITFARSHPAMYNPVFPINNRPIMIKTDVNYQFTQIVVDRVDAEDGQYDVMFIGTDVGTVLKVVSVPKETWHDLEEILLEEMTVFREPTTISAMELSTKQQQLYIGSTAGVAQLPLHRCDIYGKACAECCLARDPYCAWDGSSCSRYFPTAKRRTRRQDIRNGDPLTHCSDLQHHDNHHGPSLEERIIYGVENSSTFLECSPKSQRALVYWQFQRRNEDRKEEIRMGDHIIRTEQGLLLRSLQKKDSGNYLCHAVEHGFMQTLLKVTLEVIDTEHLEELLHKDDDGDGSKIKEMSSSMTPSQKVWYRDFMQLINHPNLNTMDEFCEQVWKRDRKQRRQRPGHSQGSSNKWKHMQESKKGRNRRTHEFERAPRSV
The assay is described as above. How it is done:
as §1, §2, §3

Assay [4] has as its target T4, Human semaphorin 3A (Sema3A) (human, UniProt Q14563 21-771).
T4 construct: also called human Sema3A; HuSema3A
T4 sequence: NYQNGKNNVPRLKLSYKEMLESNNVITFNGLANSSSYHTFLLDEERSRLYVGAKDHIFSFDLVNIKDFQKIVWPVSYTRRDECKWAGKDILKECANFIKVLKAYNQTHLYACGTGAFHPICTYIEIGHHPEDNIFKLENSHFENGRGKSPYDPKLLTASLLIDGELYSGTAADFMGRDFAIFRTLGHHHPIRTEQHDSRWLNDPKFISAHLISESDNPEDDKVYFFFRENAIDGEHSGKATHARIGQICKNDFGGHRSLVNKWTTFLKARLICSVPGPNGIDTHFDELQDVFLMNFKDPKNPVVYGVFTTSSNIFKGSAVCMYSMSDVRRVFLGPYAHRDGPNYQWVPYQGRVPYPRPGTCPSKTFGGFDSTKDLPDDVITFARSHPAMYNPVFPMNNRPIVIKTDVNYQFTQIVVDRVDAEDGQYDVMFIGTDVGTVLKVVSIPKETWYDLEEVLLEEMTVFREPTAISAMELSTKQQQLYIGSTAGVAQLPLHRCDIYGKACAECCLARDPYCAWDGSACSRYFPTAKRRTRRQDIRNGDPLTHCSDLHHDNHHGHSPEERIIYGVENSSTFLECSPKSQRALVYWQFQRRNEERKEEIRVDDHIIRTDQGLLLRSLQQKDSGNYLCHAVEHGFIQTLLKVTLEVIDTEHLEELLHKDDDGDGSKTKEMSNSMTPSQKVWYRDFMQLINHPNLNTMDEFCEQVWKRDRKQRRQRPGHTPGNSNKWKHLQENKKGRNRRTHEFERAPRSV
Described as above. How it is done:
as §1, §2, §3

For assay [5], the target named is T1, Rabbit Sema3A. The assay is described as follows: SPR (BioRad GLM chip), antibody captured on goat anti-human IgG, Sema3A as analyte, 1:1 Langmuir fit.
In assay [6] the target is T2, Rat Sema3A. The description is as above.
Assay [7] has as its target T3, Mouse Sema3A. Described as above.
The target in assay [8] is T4, Human semaphorin 3A (Sema3A). Described as above.
Assay [9] addresses Cynomolgus Sema3A (cynomolgus). Briefly: SPR (GLM sensorchip), antibody captured on Human Fab Binder, Sema3A as analyte, 1:1 Langmuir fit.
Assay [10] concerns the target T4, Human semaphorin 3A (Sema3A). Briefly: SPR (BioRad GLM chip), antibody captured on anti-human Fab antibody, human Sema3A as analyte, 1:1 Langmuir fit. The procedure:
A high surface density of anti-human Fab antibody (GE Healthcare) was immobilized over a GLM chip (BioRad) via direct amine coupling over 6 horizontal channels according to the BioRad manufacturer's manual.
The antibody of the invention (clone 1) and the Chiome antibodies were captured over the anti-human Fab antibody surface over 5 of 6 vertical channels with a minimum surface density for the kinetic binding assay. Human Sema3A was prepared in PBS-T-EDTA buffer (BioRad) at concentrations of 100, 50, 25, 12.5, 10, 6.25, 5, 2.5, 1.25, 0.625 and 0 nM. A PBS-T-EDTA buffer injection was used as a double reference for the kinetic data analysis. Each of the human Sema3A solutions and PBS-T-EDTA buffer were injected simultaneously over the 6 horizontal channels for 10 min at a flow rate of 40 μL/min followed by 2 hr dissociation phase. The surfaces were regenerated by an 18 sec injection of 10 mM pH 2.1 glycine HCl (GE Healthcare) at a flow rate of 100 μL/min followed by an injection of 60 sec PBS-T-EDTA at a flow rate of 25 μL/min.

The target in assay [11] is Cynomolgus Sema3A (cynomolgus). The assay is described as follows: SPR (BioRad GLM chip), antibody captured on goat anti-human IgG, Sema3A as analyte, 1:1 Langmuir fit.

B1: Antibody of the invention (clone I) (antibody, human IgG1, kappa, L234A L235A, V domains shown)
VH: EVQLVESGGGLVQPGGSLRLSCAASGFTFSSYYMSWVRQAPGKGLEWVSTIIKSGGYAYYPDSVKDRFTISRDNSKNTLYLQMSSLRAEDTAVYYCVRGGQGAMDYWGQGTTVTVSS
VL: EIVLTQSPATLSLSPGERATLSCRASQSIGDYLHWYQQKPGQAPRLLIKYASQSISGIPARFSGSGSGTDFTLTITSLEPEDFAVYYCQQGYSFPYTFGGGTKLEIKR
notes: also called clone 1; anti-Sema3A antibody of the invention
With B1, the Kd in the assay with Rabbit Sema3A [1] stood at 0.042 nM; in the assay with Rat Sema3A [2], 0.027 nM; with Mouse Sema3A [3], 0.027 nM; in assay [4] it was 0.029 nM; with Rabbit Sema3A [5], 0.0401 nM; in the assay with Rat Sema3A [6] it was 0.0235 nM. Further, the Kd in the assay with Mouse Sema3A [7] was determined as 0.035 nM; in assay [8] it was 0.0347 nM; in assay [9], 0.028 nM; in assay [10], 0.032 nM; in assay [11], 0.035 nM.
